# Reference: PMC3248863, “The acid-tolerant L-arabinose isomerase from the mesophilic Shewanella sp. ANA-3 is highly active at low temperatures” (Microbial Cell Factories, 2011)
# Target: the molecule itself
# Assay: SEC; size exclusion chromatography of the purified recombinant enzyme against protein markers of 669, 440, 232, 140 and 66 kDa; single peak of 230 kDa, compared with the 55 kDa band in reducing SDS-PAGE
protein,measurement,value
"Shewanella sp. ANA-3 L-arabinose isomerase (enzyme, UniProt A0KWX7 1-500, looked up, L-arabinose isomerase (EC 5.3.1.4) of Shewanella sp; ANA-3, product of the araA gene amplified from chromosomal DNA; 500 amino-acid residues, calculated mass 55.3 kDa; Six histidines at the N-terminal end from pET-15b; also called L-AI; Shewanella sp; ANA-3 L-AI; source: E. coli BL21 (DE3) (pMR38, pET-15b), purified (ammonium sulphate precipitation, IMAC, size exclusion chromatography)) MKAFKQKQVWFITGSQDLYGPKVLEQVAKNSEQIVHGFNESSAISIEVVYKPTVKSPREIHAVCQAANSDENCVGVILWMHTFSPAKMWIAGLNELSKPFMHLHTQFNAELPWSEINMNYMNTHQSAHGCREFGFIGTRMRKERKVVVGHWQSSDVQAQIDDWCRAAAGWHESQNLRIARFGDNMRQVAVTEGDKVAAQIQFGYEVHAYSLGELNEAIADIAEGDVTAQLDRYASEYQVGNELFGDEYQLDRLRKEAKIELGLTQFLTQGGFGAFTNCFENLTGMTGLPGLATQRLMANGFGYGGEGDWKTAAMVRIMKVMGQGRAGGTSFMEDYTYNFGATDQVLGAHMLEVCPSIAAAKPRLEVHRHTIGVRCDVPRLLFTGKAGPAINVSTIDLGNRFRIILNELDTVTPPQDLPNLPVASALWEPRPNLAVAAAAWIHAGGAHHSAYSQAITTDQIVDFAEMAGAELVIIDADTKIREFKNELRQNSVYYGLARGL",stoichiometry N,4
